From IntAct's records for PubMed 23353789

B1: Chromosome partition protein Smc (Bacillus subtilis), P51834 (parent)
chain: MFLKRLDVIGFKSFAERISVDFVKGVTAVVGPNGSGKSNITDAIRWVLGEQSARSLRGGKMEDIIFAGSDSRKRLNLAEVTLTLDNDDHFLPIDFHEVSVTRRVYRSGESEFLINNQPCRLKDIIDLFMDSGLGKEAFSIISQGKVEEILSSKAEDRRSIFEEAAGVLKYKTRKKKAENKLFETQDNLNRVEDILHELEGQVEPLKIQASIAKDYLEKKKELEHVEIALTAYDIEELHGKWSTLKEKVQMAKEEELAESSAISAKEAKIEDTRDKIQALDESVDELQQVLLVTSEELEKLEGRKEVLKERKKNAVQNQEQLEEAIVQFQQKETVLKEELSKQEAVFETLQAEVKQLRAQVKEKQQALSLHNENVEEKIEQLKSDYFELLNSQASIRNELQLLDDQMSQSAVTLQRLADNNEKHLQERHDISARKAACETEFARIEQEIHSQVGAYRDMQTKYEQKKRQYEKNESALYQAYQYVQQARSKKDMLETMQGDFSGFYQGVKEVLKAKERLGGIRGAVLELISTEQKYETAIEIALGASAQHVVTDDEQSARKAIQYLKQNSFGRATFLPLSVIRDRQLQSRDAETAARHSSFLGVASELVTFDPAYRSVIQNLLGTVLITEDLKGANELAKLLGHRYRIVTLEGDVVNPGGSMTGGAVKKKNNSLLGRSRELEDVTKRLAEMEEKTALLEQEVKTLKHSIQDMEKKLADLRETGEGLRLKQQDVKGQLYELQVAEKNINTHLELYDQEKSALSESDEERKVRKRKLEEELSAVSEKMKQLEEDIDRLTKQKQTQSSTKESLSNELTELKIAAAKKEQACKGEEDNLARLKKELTETELALKEAKEDLSFLTSEMSSSTSGEEKLEEAAKHKLNDKTKTIELIALRRDQRIKLQHGLDTYERELKEMKRLYKQKTTLLKDEEVKLGRMEVELDNLLQYLREEYSLSFEGAKEKYQLETDPEEARKRVKLIKLAIEELGTVNLGSIDEFERVNERYKFLSEQKEDLTEAKNTLFQVIEEMDEEMTKRFNDTFVQIRSHFDQVFRSLFGGGRAELRLTDPNDLLHSGVEIIAQPPGKKLQNLNLLSGGERALTAIALLFSILKVRPVPFCVLDEVEAALDEANVFRFAQYLKKYSSDTQFIVITHRKGTMEEADVLYGVTMQESGVSKVISVKLEETKEFVQ
partner: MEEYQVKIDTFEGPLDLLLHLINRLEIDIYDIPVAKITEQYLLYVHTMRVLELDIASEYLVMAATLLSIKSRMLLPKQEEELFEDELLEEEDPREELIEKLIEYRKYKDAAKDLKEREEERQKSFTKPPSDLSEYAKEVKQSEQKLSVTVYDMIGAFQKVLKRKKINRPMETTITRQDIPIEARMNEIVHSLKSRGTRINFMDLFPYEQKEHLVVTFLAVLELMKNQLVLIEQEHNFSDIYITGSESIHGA
B2: Segregation and condensation protein A (Bacillus subtilis), P35154 (parent)
chain: B1 partner
partner: B1 chain

Variants of: B1
Settings: with scpa_bacsu scpA

Row | Variant | effect of a mutation on the interaction
1 | V1176E | disrupting interaction strength
2 | I1174E | disrupting interaction strength

Variants of: B1
Settings: with scpa_bacsu scpA
Remark: another data set of the same source

Row | Variant | effect of a mutation on the interaction
3 | Y170E | decreasing interaction strength
4 | V1021E | disrupting interaction strength

Variants of: B2
Settings: with smc_bacsu smc

Row | Variant | effect of a mutation on the interaction
5 | K70E | disrupting interaction strength
6 | L60K | disrupting interaction strength
7 | L67E | disrupting interaction strength
